The record followed here is article PMC6100724, “Proteome‐wide analysis of phospho‐regulated PDZ domain interactions” (Molecular Systems Biology, 2018).

In one experiment the test system is GST‐tagged Scribble PDZ1. Put plainly: GST-pulldown from HEK293 lysates with GST-tagged Scribble PDZ1. In kind it is binding, human. Conditions: Flag‐tagged full-length protein over-expressed in HEK293 cells; anti‐Flag detection. From the text: (§1) pDONR223‐RPS6KA2 (Johannessen et al, 2010) was a gift from William Hahn & David Root (Addgene plasmid # 23530). The gene was PCR‐amplified introducing HindIII and EcoRI restriction sites along with the C‐terminal phosphomimetic (S730E) or phosphoinhibiting (S730A) mutations, or the PDZbm deletion (T731‐L733). pKH3‐human RSK1 was a gift from John Blenis (Addgene plasmid # 13841; Richards et al, 2001). The gene was PCR‐amplified introducing HindIII and EcoRI restriction sites, and a and PDZbm deletion (T733‐L735) was generated. The genes (wild type and mutants) were cloned into 3xFlag CMV‐10 vector and subjected to Sanger sequencing. […]
(§2) The plasmids encoding 3xFlag RPS6KA2 wild type and mutants thereof, 3xFlag RPS6KA1 and mutants thereof, and GFP‐tagged full‐length human Scribble (Navarro et al, 2005) were Midipreped using PureLink HiPure Plasmid Midiprep Kit (Invitrogen). […] The membranes were immunoblotted with anti‐Flag (ab1162; Abcam), anti‐GFP (ab6556; Abcam), and anti‐actin (ab1801; Abcam) primary antibodies followed by HRP‐conjugated anti rabbit secondary antibody (Life technologies) and detected with Amersham ECL Western Blotting Detection Reagent (GE Healthcare), and exposed to high‐performance chemiluminescence film (Amersham Hyperfilm ECL; GE Healthcare) for 30–180 s and developed and fixed using GBX developer and fixer (Carestream Dental).

The subject of experiment [1] is GFP‐tagged full‐length Scribble. Put plainly: Co-immunoprecipitation in HEK293 cells. Format: binding, human. The note with it: transient expression in HEK293 cells; anti‐Flag beads; anti‐Flag and anti‐GFP detection.
Source text: as §1, §2

B1: RPS6KA2 S730E: Flag‐tagged full-length RPS6KA2 phosphomimetic mutant expressed in HEK293 cells (protein)
chain: MDLSMKKFAVRRFFSVYLRRKSRSKSSSLSRLEEEGVVKEIDISHHVKEGFEKADPSQFELLKVLGQGSYGKVFLVRKVKGSDAGQLYAMKVLKKATLKVRDRVRSKMERDILAEVNHPFIVKLHYAFQTEGKLYLILDFLRGGDLFTRLSKEVMFTEEDVKFYLAELALALDHLHSLGIIYRDLKPENILLDEEGHIKITDFGLSKEAIDHDKRAYSFCGTIEYMAPEVVNRRGHTQSADWWSFGVLMFEMLTGSLPFQGKDRKETMALILKAKLGMPQFLSGEAQSLLRALFKRNPCNRLGAGIDGVEEIKRHPFFVTIDWNTLYRKEIKPPFKPAVGRPEDTFHFDPEFTARTPTDSPGVPPSANAHHLFRGFSFVASSLIQEPSQQDLHKVPVHPIVQQLHGNNIHFTDGYEIKEDIGVGSYSVCKRCVHKATDTEYAVKIIDKSKRDPSEEIEILLRYGQHPNIITLKDVYDDGKFVYLVMELMRGGELLDRILRQRYFSEREASDVLCTITKTMDYLHSQGVVHRDLKPSNILYRDESGSPESIRVCDFGFAKQLRAGNGLLMTPCYTANFVAPEVLKRQGYDAACDIWSLGILLYTMLAGFTPFANGPDDTPEEILARIGSGKYALSGGNWDSISDAAKDVVSKMLHVDPHQRLTAMQVLKHPWVVNREYLSPNQLSRQDVHLVKGAMAATYFALNRTPQAPRLEPVLSSNLAQRRGMKRLTETRL
modifications: left off: 3xFlag, end not stated, kept
notes: Flag‐tagged full-length RPS6KA2 phosphomimetic mutant expressed in HEK293 cells
B1: the “GST‐pulldown with GST‐tagged Scribble PDZ1” value in the experiment with GST‐tagged Scribble PDZ1 is on record as “confirmed an interaction”. In experiment [1], the “co‐IP with GFP‐tagged full‐length Scribble” value is on record as “strong co‐IP”.

B2: Flag‐tagged RPS6KA1: Flag‐tagged full-length wild-type RPS6KA1 expressed in HEK293 cells (protein, UniProt Q15418 1-735, looked up)
chain: MPLAQLKEPWPLMELVPLDPENGQTSGEEAGLQPSKDEGVLKEISITHHVKAGSEKADPSHFELLKVLGQGSFGKVFLVRKVTRPDSGHLYAMKVLKKATLKVRDRVRTKMERDILADVNHPFVVKLHYAFQTEGKLYLILDFLRGGDLFTRLSKEVMFTEEDVKFYLAELALGLDHLHSLGIIYRDLKPENILLDEEGHIKLTDFGLSKEAIDHEKKAYSFCGTVEYMAPEVVNRQGHSHSADWWSYGVLMFEMLTGSLPFQGKDRKETMTLILKAKLGMPQFLSTEAQSLLRALFKRNPANRLGSGPDGAEEIKRHVFYSTIDWNKLYRREIKPPFKPAVAQPDDTFYFDTEFTSRTPKDSPGIPPSAGAHQLFRGFSFVATGLMEDDGKPRAPQAPLHSVVQQLHGKNLVFSDGYVVKETIGVGSYSECKRCVHKATNMEYAVKVIDKSKRDPSEEIEILLRYGQHPNIITLKDVYDDGKHVYLVTELMRGGELLDKILRQKFFSEREASFVLHTIGKTVEYLHSQGVVHRDLKPSNILYVDESGNPECLRICDFGFAKQLRAENGLLMTPCYTANFVAPEVLKRQGYDEGCDIWSLGILLYTMLAGYTPFANGPSDTPEEILTRIGSGKFTLSGGNWNTVSETAKDLVSKMLHVDPHQRLTAKQVLQHPWVTQKDKLPQSQLSHQDLQLVKGAMAATYSALNSSKPTPQLKPIESSILAQRRVRKLPSTTL
modifications: full-length Flag tag
notes: Flag‐tagged full-length wild-type RPS6KA1 expressed in HEK293 cells
As for B2, the “GST‐pulldown with GST‐tagged Scribble PDZ1” value in the experiment on GST‐tagged Scribble PDZ1 is given as “interaction was further confirmed”.
